# Data: article PMC5018360 (2017)
# T1: MCL-1 (Mus musculus, UniProt P97287)
# T1 chain: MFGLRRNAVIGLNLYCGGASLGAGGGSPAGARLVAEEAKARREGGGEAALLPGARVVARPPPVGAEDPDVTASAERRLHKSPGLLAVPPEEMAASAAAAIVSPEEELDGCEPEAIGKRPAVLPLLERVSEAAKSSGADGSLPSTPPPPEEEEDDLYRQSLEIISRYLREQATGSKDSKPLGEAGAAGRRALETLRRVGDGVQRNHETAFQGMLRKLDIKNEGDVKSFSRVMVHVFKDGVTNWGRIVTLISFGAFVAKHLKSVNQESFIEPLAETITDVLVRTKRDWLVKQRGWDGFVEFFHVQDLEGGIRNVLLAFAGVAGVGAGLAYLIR
# Biological target: T1, MCL-1
# Test: surface plasmon resonance
row,Kd [nM],Binder
1,3440,GRLAEVCTVLLRLGDELEQIRPSVY [BOK BH3 peptide BH3]
2,134,EDIIRNIARHLAQVGDSMDRSI [BID BH3 peptide]
